The target of experiment [1] is human serum-derived IgG (SIGMA, #14506, Lot #SLBR0560V) (human). The experiment in a line: frontal loading of 0.67 mg/ml IgG on a 1-ml Z33 column (912 nmol), 20 mM phosphate pH 7.0.
For experiment [2] the target is unchanged. The experiment in a line: elution at pH 3.5 from the 1-ml Z33 column, A280.

As for “IgG-bound peptide Z33 Acetyl-…-NH2, immobilized on a HiTrap NHS-activated HP column”, the dynamic binding capacity (DBC) in experiment [1] worked out at 26 mg. The substance further returned an amount of the antibody bound to the column in experiment [2] of 19 mg.

The values above are taken from patent US20220363716A1.
